Patent US10781262B2, “Combination therapy of T cell activating bispecific antigen binding molecules and PD-1 axis binding antagonists” (Hoffmann-La Roche Inc., priority 2014, dated 2020)
Changes are numbered by the printed parent chain. Read-outs that look alike come from different tables or passages of the source.

B1: 11F8: anti-FolR1 clone, generic multi-framework library (Vk_1_5/VH_1_69); Fab and IgG (antibody, V domains shown)
VH: QVQLVQSGAEVKKPGSSVKVSCKASGGTFSSYAISWVRQAPGQGLEWMGGIIPIFGTANYAQKFQGRVTITADKSTSTAYMELSSLRSEDTAVYYCARAVFYRAWYSFDYWGQGTTVTVSS
VL: DIQMTQSPSTLSASVGDRVTITCRASQSISSWLAWYQQKPGKAPKLLIYDASSLESGVPSRFSGSGSGTEFTLTISSLQPDDFATYYCQQYTSPPPTFGQGTKVEIK
B2: 5D9: anti-FolR1 clone, generic multi-framework library (Vk3_20/VH1_46); Fab and IgG (antibody, V domains shown)
VH: QVQLVQSGAEVKKPGASVKVSCKASGYTFTSYYMHWVRQAPGQGLEWMGIINPSGGSTSYAQKFQGRVTMTRDTSTSTVYMELSSLRSEDTAVYYCARSYIDMDYWGQGTLVTVSS
VL: EIVLTQSPGTLSLSPGERATLSCRASQSVSSSYLAWYQQKPGQAPRLLIYGASSRATGIPDRFSGSGSGTDFTLTISRLEPEDFAVYYCQQDNWSPTFGQGTKVEIK
B3: 6B6: anti-FolR1 clone, generic multi-framework library (Vk3_20/VH1_46); Fab and IgG (antibody, V domains shown)
VH: B2 VH with I101V
VL: B2 VL with N93I
B4: 36F2: anti-FolR1 clone, generic multi-framework library (Vk_3_20/VH_1_46); Fab and IgG (antibody, V domains shown)
VH: QVQLVQSGAEVKKPGASVKVSCKASGYTFTSYYMHWVRQAPGQGLEWMGIINPSGGSTSYAQKFQGRVTMTHDTSTSTVYMELSSLRSEDTAVYYCARSFFTGFHLDYWGQGTLVTVSS
VL: EIVLTQSPGTLSLSPGERATLSCRASQSVSSSYLAWYQQKPGQAPRLLIYGASSRATGIPDRFSGSGSGTDFTLTISRLEPEDFAVYYCQQYTNEHYYTFGQGTKVEIK

Experiments:
human FolR2 [1] = target: T1, human FolR2 (Homo sapiens, UniProt P14207); assay: SPR affinity of selected Fab clones (ProteOn XPR36); type: binding; design: the extracellular domain of the antigen linked to the hinge region of Fc-knob; made in house; host or cells: HEK293 EBNA; settings: Fab-format, generic multi-framework sub-libraries, 25° C.
human FolR1 [2] = target: T2, human FolR1 (Homo sapiens, UniProt P15328); settings: IgG injected for 60 seconds at 500 nM
Method: (§1) Binding of FolR1 binders as IgG or in the T-cell bispecific format to different recombinant folate receptors (human FolR1, 2 and 3, murine FolR1 and cynomolgus FolR1; all as Fc fusions) was assessed by surface plasmon resonance (SPR). All SPR experiments were performed on a Biacore T200 at 25° C. with HBS-EP as running buffer (0.01 M HEPES pH 7.4, 0.15 M NaCl, 3 mM EDTA, 0.005% Surfactant P20, Biacore, Freiburg/Germany).
(§2) First the anti-FolR1 IgGs were analyzed by single injections (Table 1) to characterize their crossreactivity (to human, murine and cyno FolR1) and specificity (to human FolR1, human FolR2, human FolR3). Recombinant biotinylated monomeric Fc fusions of human, cynomolgus and murine Folate Receptor 1 (FolR1-Fc) or human Folate Receptor 2 and 3 (FolR2-Fc, FolR3-Fc) were directly coupled on a SA chip using the standard coupling instruction (Biacore, Freiburg/Germany). The immobilization level was about 300-400 RU. The IgGs were injected for 60 seconds at a concentration of 500 nM.

cynomolgus FolR1 [3] = settings: IgG injected for 60 seconds at 500 nM
Method: as §1, §2

human FolR2 [4] = target: T1, human FolR2; settings: IgG injected for 60 seconds at 500 nM
Method: as §1, §2

murine FolR1 [5] = target: murine FolR1 (Mus musculus, UniProt P35846); settings: IgG injected for 60 seconds at 500 nM
Method: as §1, §2

human FolR3 [6] = target: T3, human FolR3 (Homo sapiens, UniProt P41439); settings: IgG injected for 60 seconds at 500 nM
Method: as §1, §2

human FolR3 [7] = target: T3, human FolR3; assay: SPR affinity of selected Fab clones (ProteOn XPR36); type: binding; design: the extracellular domain of the antigen linked to the hinge region of Fc-knob; made in house; host or cells: HEK293 EBNA; settings: Fab-format, generic multi-framework sub-libraries, 25° C.
human FolR1 [8] = target: T2, human FolR1; settings: read-out: KD huFolR1; Fab-format, generic multi-framework sub-libraries, 25° C.
Method: (§3) Immobilization of antigens (ligand): Recombinant antigens were diluted with PBST (10 mM phosphate, 150 mM sodium chloride pH 7.4, 0.005% Tween 20) to […] injected at 30 μl/minute in vertical orientation. Injection of analytes: For ‘one-shot kinetics’ measurements, injection direction was changed to horizontal orientation, two-fold dilution series of purified Fab (varying concentration ranges) were injected simultaneously along separate channels 1-5, with association times of 200 s, and dissociation times of 600 s. Buffer (PBST) was injected along the sixth channel to provide an “in-line” blank for referencing. Association rate constants (kon) and dissociation rate constants (koff) were calculated using a simple one-to-one Langmuir binding model in ProteOn Manager v3.1 software by simultaneously fitting the association and dissociation sensorgrams. The equilibrium dissociation constant (KD) was calculated as the ratio koff/kon.
(§4) Immobilization of antigens (ligand): Recombinant antigens were diluted with PBST (10 mM phosphate, 150 mM sodium chloride pH 7.4, 0.005% Tween 20) to 10 μg/ml, then injected at 30 μl/minute in vertical orientation. Injection of analytes: For ‘one-shot kinetics’ measurements, injection direction was changed to horizontal orientation, two-fold dilution series of purified Fab (varying concentration ranges) were injected simultaneously along separate channels 1-5, with association times of 150 or 200 s, and dissociation times of 200 or 600 s, respectively. Buffer (PBST) was injected along the sixth channel to provide an “in-line” blank for referencing. Association rate constants (kon) and dissociation rate constants (koff) were calculated using a simple one-to-one Langmuir binding model in ProteOn Manager v3.1 software by simultaneously fitting the association and dissociation sensorgrams. The equilibrium dissociation constant (KD) was calculated as the ratio koff/kon.

cynomolgus FolR1 [9] = settings: read-out: KD cyFolR1; Fab-format, generic multi-framework sub-libraries, 25° C.
Method: as §3, §4

murine FolR1 [10] = target: murine FolR1 (Mus musculus, UniProt P35846, C103A); settings: Fab-format, generic multi-framework sub-libraries, 25° C.
Method: as §3, §4

[11] = tested on: HEK cells transiently transfected with cyno FolR1; assay: Flow cytometry cross-reactivity on transfected HEK cells; type: binding, cynomolgus; settings: IgG
From the text: FIGS. 4A-B depict graphs summarizing cross-reactivity of FolR1 binders to cyFoLR1. Cross-reactivity of the FolR1 antibodies to cyno FolR1 was addressed on HEK cells transiently transfected with cyFolR1 by flow cytometry.
(§5) New FolR1 hinders were generated via Phage Display using either a Fab library or a common light chain library using the CD3 light chain. The identified binders were converted into a human IgG1 format and binding to FolR1 high expressing HeLa cells was addressed. As reference molecule the human FolR1 binder Mov19 was included. […] In a next step the selected clones were tested for specificity to human FolR1 by excluding binding to the closely related human FolR2. HEK cells were transiently transfected with either human FolR1 or human FolR2 to address specificity. […] Therefore these clones were excluded from further characterization. In parallel cross-reactivity of the FolR1 clones to cyno FolR1 was addressed by performing binding studies to HEK cells transiently transfected with cyno FolR1. […] Subsequently three human FolR1 specific cyno cross-reactive binders were converted into TCB format and tested for induction of T cell killing and T cell activation. […] As reference molecule Mov19 FolR1 TCB was included in all studies. These FoLR1 TCBs were then used to compare induction of internalization after binding to FolR1 on HeLa cells.

[12] = target: murine Folate Receptor 1 (FolR1-Fc) (Mus musculus, UniProt P35846); settings: bivalent binding (avidity), ligand muFolR1; 19H3 IgG with folate 2.3 μM in running buffer
Method: as §1
(§6) The avidity of the interaction between the anti-FolR1 IgGs or T cell bispecifics and the recombinant folate receptors was determined as described below (Table 9). Recombinant biotinylated monomeric Fc fusions of human, cynomolgus and murine Folate Receptor 1 (FolR1-Fc) were directly coupled on a SA chip using the standard coupling instruction (Biacore, Freiburg/Germany). The immobilization level was about 300-400 RU. The anti-FolR1 IgGs or T cell bispecifics were passed at a concentration range from 2.1 to 500 nM with a flow of 30 μL/minutes through the flow cells over 180 seconds. The dissociation was monitored for 600 seconds. […] The binding curves resulting from the bivalent binding of the IgGs or T cell bispecifics were approximated to a 1:1 Langmuir binding and fitted with that model (which is not correct, but gives an idea of the avidity). The apparent avidity constants for the interactions were derived from the rate constants of the fitting using the Bia Evaluation software (GE Healthcare).

[13] = tested on: cynomolgus Folate Receptor 1 (FolR1-Fc); settings: bivalent binding (avidity), ligand cyFolR1
Method: as §1, §6

huFolR1-Fc = assay: SPR epitope binning; type: binding, human
Method: 500 nM huFolR1-Fc was then captured for 60 s, followed by 500 nM of the different binders for 30 s. The surface was regenerated with two injections of 10 mM glycine pH 2 for 30 s each.

[14] = tested on: HEK cells transiently transfected with human FolR1 or human FolR2; assay: Flow cytometry specificity on transfected HEK cells; type: binding; settings: IgG
Method: FIGS. 3A-B depict graphs summarizing specificity of FolR1 binders for FolR1. Binding of FolR1 IgGs to HEK cells transiently transfected with either FolR1 or FolR2 was analyzed by flow cytometry to identify clones which bind specifically to FolR1 and not to FolR2.
as §5

[15] = target: T4, human Folate Receptor 1 (FolR1-Fc) (Homo sapiens, UniProt P15328); assay: SPR avidity to Folate Receptor 1 (bivalent binding)
T4 construct: the extracellular domain of the antigen linked to the hinge region of Fc-knob; made in house; host or cells: HEK293 EBNA
From the text: The immobilization level was about 300-400 RU. […] The dissociation was monitored for 600 seconds.

[16] = bivalent binding (avidity), ligand huFolR1

Row | Molecule | KD huFolR2 (human FolR2 [1]) | Binding to huFolR1 (human FolR1 [2]) | Binding to cyFolR1 (cynomolgus FolR1 [3]) | Binding to huFolR2 (human FolR2 [4]) | Binding to muFolR1 (murine FolR1 [5]) | Binding to huFolR3 (human FolR3 [6]) | KD huFolR3 (human FolR3 [7]) | Kd (human FolR1 [8]) [nM] | Kd (cynomolgus FolR1 [9]) [nM] | KD muFolR1 (murine FolR1 [10]) | further results
1 | B1 | no binding | + | + | + | + | + | no binding | 632 | 794 |  | 
2 | B2 | no binding | + | + | + | − | + | no binding | 8.6 | 5.9 | no binding | 
3 | B3 | no binding | + | + | + | − | + | no binding | 14.5 | 9.4 | no binding | 
4 | B4 | no binding | + | + | − | + | − | no binding |  |  |  | binding to cyno FolR1 on transfected HEK cells [11]: bind comparably well human and cyno FoLR1; ka [12]: 370000 M⁻¹ s⁻¹; kd [12]: 0.000603 s⁻¹; ka [13]: 3.02e+06 M⁻¹ s⁻¹; kd [13]: 0.016 s⁻¹; epitope characterization on human FolR1 (in words) (huFolR1-Fc): binds to a different epitope than Mov19 and Farletuzumab; epitope characterization on human FolR1 (in words) (huFolR1-Fc; listed as 36F2 IgG): Measure not possible, huFolR1 dissociates too rapidly; specificity for human FolR1 versus human FolR2 on transfected HEK cells [14]: specifically to human FolR1 and not to human FolR2; dissociation from huFolR1 (in words) [15]: dissociated rapidly from huFolR1; ka [15, 16]: 2.62e+06 M⁻¹ s⁻¹; kd [15, 16]: 0.0151 s⁻¹
